In data set [1] the target is T1, PRC2 5-mer MT (RNA-binding mutant EZH2) (UniProt Q15910;Q15022;O75530;Q09028;Q6ZN18 1-746;1-739;1-441;1-425;1-517, F32A;R34A;D36A;K39A;P489N;R490A;K491A;K492I;K493R;R494S). As to the kind of experiment: EMSA. For orientation: A gel shift assay detects complexes by their altered migration in electrophoresis.
Data set [2] has as its target PRC2 5-mer WT (EZH2-SUZ12-EED-RBBP4-AEBP2) (UniProt Q15910;Q15022;O75530;Q09028;Q6ZN18 1-746;1-739;1-441;1-425;1-517). As to the kind of experiment: EMSA.
Data set [3] concerns the target T1, PRC2 5-mer MT (RNA-binding mutant EZH2). As to the kind of experiment: fluorescence anisotropy. On the technique in general: In fluorescence polarisation assays a small probe gives low polarisation when free and higher when bound to something large.
The target of data set [4] is PRC2 4-mer MT (RNA-binding mutant EZH2) (UniProt Q15910;Q15022;O75530;Q09028 1-746;1-739;1-441;1-425, F32A;R34A;D36A;K39A;P489N;R490A;K491A;K492I;K493R;R494S). As to the kind of experiment: fluorescence anisotropy.
PRC2 4-mer MT (RNA-binding mutant EZH2), sequence (Q15910 whole entry F32A/R34A/D36A/K39A/P489N/R490A/K491A/K492I/K493R/R494S, chain 1 of 4): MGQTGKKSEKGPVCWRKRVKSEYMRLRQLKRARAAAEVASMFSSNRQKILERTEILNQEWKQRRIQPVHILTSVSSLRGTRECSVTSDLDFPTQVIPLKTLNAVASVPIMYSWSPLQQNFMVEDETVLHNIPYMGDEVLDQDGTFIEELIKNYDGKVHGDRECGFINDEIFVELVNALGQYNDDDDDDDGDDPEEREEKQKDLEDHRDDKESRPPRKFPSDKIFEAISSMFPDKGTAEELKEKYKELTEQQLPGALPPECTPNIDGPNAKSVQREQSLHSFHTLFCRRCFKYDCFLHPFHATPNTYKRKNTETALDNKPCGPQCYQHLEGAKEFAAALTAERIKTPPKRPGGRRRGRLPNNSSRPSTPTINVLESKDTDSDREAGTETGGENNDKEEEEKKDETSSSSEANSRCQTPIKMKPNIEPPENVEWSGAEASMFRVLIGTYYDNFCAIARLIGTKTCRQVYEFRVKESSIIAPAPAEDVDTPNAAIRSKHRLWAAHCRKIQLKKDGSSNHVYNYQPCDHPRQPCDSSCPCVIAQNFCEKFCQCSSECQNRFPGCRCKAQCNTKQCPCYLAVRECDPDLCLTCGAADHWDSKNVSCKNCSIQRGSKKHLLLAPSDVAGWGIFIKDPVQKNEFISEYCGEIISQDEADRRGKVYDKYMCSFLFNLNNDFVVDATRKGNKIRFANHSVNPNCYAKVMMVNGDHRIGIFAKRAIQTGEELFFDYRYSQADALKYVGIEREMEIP
PRC2 4-mer MT (RNA-binding mutant EZH2), sequence (Q15022 whole entry, stated change not applied, chain 2 of 4): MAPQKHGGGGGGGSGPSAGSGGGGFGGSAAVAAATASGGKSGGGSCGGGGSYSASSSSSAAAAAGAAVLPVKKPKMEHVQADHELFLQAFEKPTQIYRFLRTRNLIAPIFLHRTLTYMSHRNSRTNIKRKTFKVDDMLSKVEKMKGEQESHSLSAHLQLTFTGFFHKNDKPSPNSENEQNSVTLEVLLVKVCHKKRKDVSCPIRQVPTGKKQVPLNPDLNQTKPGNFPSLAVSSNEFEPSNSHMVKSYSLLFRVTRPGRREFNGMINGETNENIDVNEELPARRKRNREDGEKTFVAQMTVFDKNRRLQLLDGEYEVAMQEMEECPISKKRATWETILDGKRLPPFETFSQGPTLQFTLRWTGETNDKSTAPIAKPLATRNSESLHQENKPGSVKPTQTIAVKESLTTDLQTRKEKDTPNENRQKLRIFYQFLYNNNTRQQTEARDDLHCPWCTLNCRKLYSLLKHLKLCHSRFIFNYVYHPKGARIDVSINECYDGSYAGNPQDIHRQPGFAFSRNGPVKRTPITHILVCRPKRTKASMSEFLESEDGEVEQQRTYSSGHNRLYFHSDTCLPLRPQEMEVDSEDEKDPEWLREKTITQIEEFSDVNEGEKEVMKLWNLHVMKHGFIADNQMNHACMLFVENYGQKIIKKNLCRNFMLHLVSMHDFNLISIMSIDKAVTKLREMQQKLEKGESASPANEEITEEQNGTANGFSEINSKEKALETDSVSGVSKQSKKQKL
PRC2 4-mer MT (RNA-binding mutant EZH2), sequence (O75530 whole entry, stated change not applied, chain 3 of 4): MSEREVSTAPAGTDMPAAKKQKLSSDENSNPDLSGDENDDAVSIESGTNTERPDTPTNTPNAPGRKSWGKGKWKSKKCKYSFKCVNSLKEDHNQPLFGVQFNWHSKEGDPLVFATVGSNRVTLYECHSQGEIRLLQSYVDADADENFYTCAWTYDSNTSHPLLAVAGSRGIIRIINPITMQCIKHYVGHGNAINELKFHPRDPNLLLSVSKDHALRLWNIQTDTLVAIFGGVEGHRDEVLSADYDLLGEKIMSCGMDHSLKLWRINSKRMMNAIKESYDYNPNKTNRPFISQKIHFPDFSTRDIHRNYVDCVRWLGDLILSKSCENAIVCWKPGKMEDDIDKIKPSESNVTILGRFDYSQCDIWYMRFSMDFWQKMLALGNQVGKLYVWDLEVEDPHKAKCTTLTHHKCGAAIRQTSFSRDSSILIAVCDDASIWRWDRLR
PRC2 4-mer MT (RNA-binding mutant EZH2), sequence (Q09028 whole entry, stated change not applied, chain 4 of 4): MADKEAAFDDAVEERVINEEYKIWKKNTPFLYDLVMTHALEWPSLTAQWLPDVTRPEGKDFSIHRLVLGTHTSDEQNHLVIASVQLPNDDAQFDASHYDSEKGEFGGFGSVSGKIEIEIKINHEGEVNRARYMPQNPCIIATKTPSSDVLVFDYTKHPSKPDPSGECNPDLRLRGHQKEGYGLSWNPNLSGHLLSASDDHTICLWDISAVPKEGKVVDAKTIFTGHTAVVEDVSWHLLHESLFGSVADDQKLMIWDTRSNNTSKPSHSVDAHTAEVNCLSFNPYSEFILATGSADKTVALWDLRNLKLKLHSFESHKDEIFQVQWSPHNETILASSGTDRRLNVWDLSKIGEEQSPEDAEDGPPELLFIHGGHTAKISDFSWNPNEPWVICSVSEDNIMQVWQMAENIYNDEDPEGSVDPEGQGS

B1: (GGAA)10 G4 RNA 40-mer (structured_RNA)
RNA: GGAAGGAAGGAAGGAAGGAAGGAAGGAAGGAAGGAAGGAA
The Kd is the equilibrium constant for the complex coming apart. The low end stands for a tighter complex, the high end for a looser complex. Consider B1, for which the Kd came to 12 nM in data set [1] and 2 nM in data set [2].

B2: Alexa 488-(GGAA)10 RNA (structured_RNA)
RNA: B1 RNA
For the molecule B2, the binding signal is 30 fold koff increase vs WT in data set [3] and 8 fold koff increase vs WT in data set [4].

Source of the values: article PMC10353856.
